Consider 2 substances from paper PMC7846277.

The target in the test is microtubules grown from purified bovine brain tubulin (bovine) (UniProt Q6B856). As to the kind of experiment: laser trap (optical trap) rupture force assay; kinetochore particles on anti-His5 beads (7.5 nM Dsn1-His-Flag), placed at the ends of microtubules growing from coverslip-anchored seeds; BRB80 growth buffer with 1 mM GTP, 1.5 mg/mL tubulin; force ramp 0.25 pN/s; 23°C.
UniProt Q6B856, sequence (Q6B856 whole entry, looked up): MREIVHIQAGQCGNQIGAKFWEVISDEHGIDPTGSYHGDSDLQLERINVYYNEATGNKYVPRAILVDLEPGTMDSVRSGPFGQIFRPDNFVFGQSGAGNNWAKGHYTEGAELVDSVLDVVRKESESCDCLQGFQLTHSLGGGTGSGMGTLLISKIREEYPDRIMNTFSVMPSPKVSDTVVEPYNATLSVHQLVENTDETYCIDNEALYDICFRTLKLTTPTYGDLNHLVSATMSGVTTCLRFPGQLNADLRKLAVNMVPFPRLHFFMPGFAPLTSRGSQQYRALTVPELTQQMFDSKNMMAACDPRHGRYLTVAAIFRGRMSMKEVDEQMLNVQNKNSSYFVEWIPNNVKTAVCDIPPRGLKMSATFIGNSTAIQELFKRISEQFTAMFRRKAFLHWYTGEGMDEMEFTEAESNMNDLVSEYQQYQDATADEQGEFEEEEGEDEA

For “Wild-type meiotic metaphase I kinetochore particles (from UniProt P40568 1-576) (complex)”, the mean rupture force came out at 12 pN. Regarding “Wild-type kinetochore particles from mitotic metaphase cells (from UniProt P40568 1-576) (complex)”, the mean rupture force is 9 pN.
